No end group written: not given here.
T1: Dyn1xA-PRR 746-864 (GST tag removed) (rat, UniProt P21575 746-864, 15N-labelled (or 15N, 13C labelled) for NMR)
T1 construct: the SEC-MALS mass (19.2 kDa for the 1:1 complex) fits the cleaved forms; also called PRD; source: E. coli JM109, GST tag proteolytically cleaved, purified by gel filtration
T1 sequence (looked up): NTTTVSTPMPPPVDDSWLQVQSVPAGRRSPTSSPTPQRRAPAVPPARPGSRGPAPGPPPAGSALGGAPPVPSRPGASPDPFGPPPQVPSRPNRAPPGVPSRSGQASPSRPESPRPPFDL

T2: GST-Dyn1xA-PRR (full-length proline-rich region of Dynamin 1 splice variant xA, 746-864) (rat, UniProt P21575 746-864)
T2 construct: cloned in pGEX-6P-1; used on beads in pull-downs and in solution in the ELISA; also called PRD
T2 sequence (looked up): T1 sequence (looked up)

B1: Endophilin A1 SH3 domain (GST tag removed) (domain or fragment)
chain: not shown
notes: Endophilin A1, mouse, SH3 domain, amino acids 292-352 by the methods (the results say residues D291-H352); plasmid from Peter McPherson (McGill University); unlabelled in the titrations; also called endophilin SH3; Endophilin A SH3; source: E. coli JM109, GST tag proteolytically cleaved, purified by gel filtration
B2: GST-Dyn1xA 806-864 (domain or fragment, rat, UniProt P21575 806-864, looked up)
chain: GSALGGAPPVPSRPGASPDPFGPPPQVPSRPNRAPPGVPSRSGQASPSRPESPRPPFDL
notes: Dynamin 1 splice variant xA, rat, G806 to L864
B3: Dyn1xA 806-864 (GST tag removed) (domain or fragment, rat, UniProt P21575 806-864, looked up)
chain: B2 chain
modifications: also: 15N-labelled (13C/15N for assignment)
notes: Dynamin 1 splice variant xA, rat, G806 to L864; source: E. coli JM109, GST tag proteolytically cleaved, purified by gel filtration
B4: His-tagged mouse Endophilin A1 SH3 domain (domain or fragment)
chain: not shown
notes: Endophilin A1, mouse, SH3 domain; the methods describe only a GST-Endophilin A1-SH3 construct (mouse, 292-352); no His-tagged construct is described there; also called His-tagged mouse Endophilin-SH3 domain
B5: GST-Dyn1xA 746-798 (domain or fragment, rat, UniProt P21575 746-798, looked up)
chain: NTTTVSTPMPPPVDDSWLQVQSVPAGRRSPTSSPTPQRRAPAVPPARPGSRGP
notes: Dynamin 1, rat, N746 to P798 of the PRR, common to splice variants xA and xB; also called phosphobox-1 peptide
B6: Dyn1xA 746-798 (GST tag removed) (domain or fragment, rat, UniProt P21575 746-798, looked up)
chain: B5 chain
modifications: also: 15N-labelled (13C/15N for assignment)
notes: Dynamin 1, rat, N746 to P798 of the PRR; source: E. coli JM109, GST tag proteolytically cleaved, purified by gel filtration

Experiments:
Conditions in all cases: both partners purified
[1] = molecular target: T1, Dyn1xA-PRR 746-864 (GST tag removed); test: SEC-MALS; Superdex 75 10/300 GL, 20 mM HEPES, 100 mM NaCl, 1 mM DTT, 1 mM PMSF, pH 7.2; complex at 0.5 mg and diluted to one third (0.167 mg)
[2] = molecular target: B4; test: ELISA; His-tagged mouse Endophilin A1 SH3 domain coated on a 96-well plate, overlaid with increasing concentrations of GST-tagged Dyn1-PRR peptides; two experiments of four replicates
[3] = molecular target: B1; test: NMR titration; 1H-15N HSQC chemical shift perturbation; unlabelled Endophilin A1 SH3 titrated into 15N-labelled Dyn1 peptide; 298 K, 600 MHz
[4] = molecular target: T2, GST-Dyn1xA-PRR (full-length …); test: ELISA; His-tagged mouse Endophilin A1 SH3 domain coated on a 96-well plate, overlaid with increasing concentrations of GST-tagged Dyn1-PRR peptides; two experiments of four replicates

Chain of His-tagged mouse Endophilin A1 SH3 domain (Q62420 290-349): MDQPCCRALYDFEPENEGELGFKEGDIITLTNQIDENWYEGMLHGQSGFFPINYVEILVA

B1
stoichiometry N [1]: 1

B2
fold difference in affinity from xA_(746–864) [2]: < 2 fold | fold higher affinity than xA_(746–798) [2]: 5 fold

B3
binding result [3]: binds

B4
Kd [4]: 44 nM

B5
fold weaker affinity than xA_(746–864) [2]: 9 fold

B6
binding result [3]: binds
